# Measured values: patent US20180282410A1 (Hoffmann-La Roche, published 2018)
# Substitutions are numbered along the chain they refer to. Like-named read-outs stand apart in the source and are kept apart here.
# T1: full-length human Robo 4 (on cells) (human, UniProt Q8WZ75 28-1007)
# T1 sequence: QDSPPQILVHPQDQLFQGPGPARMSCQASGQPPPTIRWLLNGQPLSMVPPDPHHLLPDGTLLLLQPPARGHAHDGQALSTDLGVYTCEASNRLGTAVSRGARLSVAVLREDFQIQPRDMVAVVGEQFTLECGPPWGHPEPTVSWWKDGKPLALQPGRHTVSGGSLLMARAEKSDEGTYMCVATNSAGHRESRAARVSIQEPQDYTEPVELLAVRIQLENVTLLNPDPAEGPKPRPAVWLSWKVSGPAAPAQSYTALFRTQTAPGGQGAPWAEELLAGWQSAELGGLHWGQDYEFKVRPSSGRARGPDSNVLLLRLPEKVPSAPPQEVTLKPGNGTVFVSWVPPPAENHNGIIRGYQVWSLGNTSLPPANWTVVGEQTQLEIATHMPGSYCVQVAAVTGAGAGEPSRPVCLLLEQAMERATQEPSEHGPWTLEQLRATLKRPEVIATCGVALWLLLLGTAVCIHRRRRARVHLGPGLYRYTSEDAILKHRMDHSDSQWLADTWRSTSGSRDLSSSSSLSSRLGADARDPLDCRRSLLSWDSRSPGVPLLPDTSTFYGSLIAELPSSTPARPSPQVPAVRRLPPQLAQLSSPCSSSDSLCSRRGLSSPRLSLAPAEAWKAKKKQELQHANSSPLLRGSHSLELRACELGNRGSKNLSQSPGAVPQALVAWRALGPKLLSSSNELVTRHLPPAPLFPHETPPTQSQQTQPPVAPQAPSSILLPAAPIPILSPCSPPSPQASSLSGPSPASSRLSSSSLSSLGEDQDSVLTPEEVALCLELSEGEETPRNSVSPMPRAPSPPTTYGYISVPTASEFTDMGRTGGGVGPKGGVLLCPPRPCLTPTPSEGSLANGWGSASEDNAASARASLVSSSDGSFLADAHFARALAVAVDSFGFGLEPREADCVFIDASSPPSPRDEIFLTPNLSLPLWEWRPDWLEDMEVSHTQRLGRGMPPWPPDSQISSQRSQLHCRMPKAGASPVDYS
# T2: mouse Robo 4 on MS-1 mouse endothelial cells (mouse, UniProt Q8C310 28-1012)
# T2 sequence: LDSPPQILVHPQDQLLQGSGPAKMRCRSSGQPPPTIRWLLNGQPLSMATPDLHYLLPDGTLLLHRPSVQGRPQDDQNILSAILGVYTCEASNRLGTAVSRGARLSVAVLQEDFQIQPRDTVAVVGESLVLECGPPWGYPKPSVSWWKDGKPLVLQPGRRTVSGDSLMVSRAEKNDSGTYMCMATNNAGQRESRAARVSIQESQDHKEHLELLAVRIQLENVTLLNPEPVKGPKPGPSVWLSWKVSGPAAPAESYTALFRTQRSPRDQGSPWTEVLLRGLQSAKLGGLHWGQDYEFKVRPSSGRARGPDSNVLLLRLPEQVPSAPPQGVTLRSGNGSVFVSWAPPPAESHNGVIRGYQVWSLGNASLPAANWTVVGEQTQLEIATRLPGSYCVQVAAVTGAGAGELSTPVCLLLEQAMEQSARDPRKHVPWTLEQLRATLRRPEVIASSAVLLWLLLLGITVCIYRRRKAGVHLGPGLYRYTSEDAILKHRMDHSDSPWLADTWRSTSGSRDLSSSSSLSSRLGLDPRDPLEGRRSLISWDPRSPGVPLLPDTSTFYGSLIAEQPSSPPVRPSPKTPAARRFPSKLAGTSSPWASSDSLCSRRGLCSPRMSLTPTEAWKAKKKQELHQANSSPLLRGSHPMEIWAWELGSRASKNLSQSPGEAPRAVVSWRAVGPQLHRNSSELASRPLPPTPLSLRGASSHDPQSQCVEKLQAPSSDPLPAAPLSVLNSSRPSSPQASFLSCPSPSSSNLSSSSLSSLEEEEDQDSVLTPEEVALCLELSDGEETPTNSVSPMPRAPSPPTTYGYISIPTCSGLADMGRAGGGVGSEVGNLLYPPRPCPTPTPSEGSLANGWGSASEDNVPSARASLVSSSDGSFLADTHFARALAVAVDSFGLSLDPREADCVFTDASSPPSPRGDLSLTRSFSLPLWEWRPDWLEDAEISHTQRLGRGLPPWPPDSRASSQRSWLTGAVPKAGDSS
# B1: Molecule L, 2+1 Fab-Fab-CrossFab (VH/VL exchange in CD3 binder, CD3 binder V9, Robo 4 binders 01F05) (bispecific antibody)
# chain 1: QVQLKQSGAELVKPGASVKISCKTSVYTFTYGYMHWVEQKPGQGLEWIGRIDPDSGNSMYNQKFQGRATLTRDKSSSTVYMELRSLTSEDSAVYYCARSMRYSGYRDYALDLWGQGTQVTVSSASTKGPSVFPLAPSSKSTSGGTAALGCLVKDYFPEPVTVSWNSGALTSGVHTFPAVLQSSGLYSLSSVVTVPSSSLGTQTYICNVNHKPSNTKVDKKVEPKSCDGGGGSGGGGSQVQLKQSGAELVKPGASVKISCKTSVYTFTYGYMHWVEQKPGQGLEWIGRIDPDSGNSMYNQKFQGRATLTRDKSSSTVYMELRSLTSEDSAVYYCARSMRYSGYRDYALDLWGQGTQVTVSSASTKGPSVFPLAPSSKSTSGGTAALGCLVKDYFPEPVTVSWNSGALTSGVHTFPAVLQSSGLYSLSSVVTVPSSSLGTQTYICNVNHKPSNTKVDKKVEPKSCDGGGGSGGGGSDIQMTQSPSSLSASVGDRVTITCRASQDIRNYLNWYQQKPGKAPKLLIYYTSRLESGVPSRFSGSGSGTDYTLTISSLQPEDFATYYCQQGNTLPWTFGQGTKVEIKSSASTKGPSVFPLAPSSKSTSGGTAALGCLVKDYFPEPVTVSWNSGALTSGVHTFPAVLQSSGLYSLSSVVTVPSSSLGTQTYICNVNHKPSNTKVDKKVEPKSC
# chain 2: QLVLTQSPSASASLGASVKLTCTLSSQHSSYGITWLQQHPDKAPKYVMYLKSDGSHTKGADIPDRFSGSSSGVHRYLSISNVQPEDEAIYFCVTYDSTHVFGSGTQLTVLGQPKAAPSVTLFPPSSEELQANKATLVCLISDFYPGAVTVAWKADSSPVKAGVETTTPSKQSNNKYAASSYLSLTPEQWKSHRSYSCQVTHEGSTVEKTVAPTECS
# chain 3: EVQLVESGGGLVQPGGSLRLSCAASGYSFTGYTMNWVRQAPGKGLEWVALINPYKGVSTYNQKFKDRFTISVDKSKNTAYLQMNSLRAEDTAVYYCARSGYYGDSDWYFDVWGQGTLVTVSSASVAAPSVFIFPPSDEQLKSGTASVVCLLNNFYPREAKVQWKVDNALQSGNSQESVTEQDSKDSTYSLSSTLTLSKADYEKHKVYACEVTHQGLSSPVTKSFNRGEC
# B2: Molecule F, 2+1 CrossFab-IgG (VH/VL exchange in CD3 binder, CD3 binder V9, Robo 4 binders 01F05) (bispecific antibody)
# chain 1: not shown
# chain 2: QVQLKQSGAELVKPGASVKISCKTSVYTFTYGYMHWVEQKPGQGLEWIGRIDPDSGNSMYNQKFQGRATLTRDKSSSTVYMELRSLTSEDSAVYYCARSMRYSGYRDYALDLWGQGTQVTVSSASTKGPSVFPLAPSSKSTSGGTAALGCLVKDYFPEPVTVSWNSGALTSGVHTFPAVLQSSGLYSLSSVVTVPSSSLGTQTYICNVNHKPSNTKVDKKVEPKSCDKTHTCPPCPAPEAAGGPSVFLFPPKPKDTLMISRTPEVTCVVVDVSHEDPEVKFNWYVDGVEVHNAKTKPREEQYNSTYRVVSVLTVLHQDWLNGKEYKCKVSNKALGAPIEKTISKAKGQPREPQVCTLPPSRDELTKNQVSLSCAVKGFYPSDIAVEWESNGQPENNYKTTPPVLDSDGSFFLVSKLTVDKSRWQQGNVFSCSVMHEALHNHYTQKSLSLSPGK
# chain 3: B1 chain 2
# chain 4: B1 chain 3
# B3: Molecule D, 1+1 CrossFab-IgG (VH/VL exchange in CD3 binder, CD3 binder V9, Robo 4 binder 7G2) (bispecific antibody)
# chain 1: not shown
# chain 2: EIVLTQSPGTLSLSPGERATLSCRASQSVSSSYLAWYQQKPGQAPRLLIYGASSRATGIPDRFSGSGSGTDFTLTISRLEPEDFAVYYCQQGQLPPRTFGQGTKVEIKRTVAAPSVFIFPPSDEQLKSGTASVVCLLNNFYPREAKVQWKVDNALQSGNSQESVTEQDSKDSTYSLSSTLTLSKADYEKHKVYACEVTHQGLSSPVTKSFNRGEC
# chain 3: B1 chain 3
# chain 4: DKTHTCPPCPAPEAAGGPSVFLFPPKPKDTLMISRTPEVTCVVVDVSHEDPEVKFNWYVDGVEVHNAKTKPREEQYNSTYRVVSVLTVLHQDWLNGKEYKCKVSNKALGAPIEKTISKAKGQPREPQVCTLPPSRDELTKNQVSLSCAVKGFYPSDIAVEWESNGQPENNYKTTPPVLDSDGSFFLVSKLTVDKSRWQQGNVFSCSVMHEALHNHYTQKSLSLSPGK
# B4: Molecule H, 1+1 Fab-CrossFab (VH/VL exchange in CD3 binder, CD3 binder V9, Robo 4 binder 7G2) (bispecific antibody)
# chain 1: not shown
# chain 2: B3 chain 2
# chain 3: B1 chain 3
# B5: Molecule M, 2+1 CrossFab-IgG, inverted, with charge modifications (VH/VL exchange in CD3 binder, charge modification in Robo 4 binders, CD3 binder of SEQ ID … (bispecific antibody)
# chain 1: QVQLKQSGAELVKPGASVKISCKTSVYTFTYGYMHWVEQKPGQGLEWIGRIDPDSGNSMYNQKFQGRATLTRDKSSSTVYMELRSLTSEDSAVYYCARSMRYSGYRDYALDLWGQGTQVTVSSASTKGPSVFPLAPSSKSTSGGTAALGCLVEDYFPEPVTVSWNSGALTSGVHTFPAVLQSSGLYSLSSVVTVPSSSLGTQTYICNVNHKPSNTKVDEKVEPKSCDKTHTCPPCPAPEAAGGPSVFLFPPKPKDTLMISRTPEVTCVVVDVSHEDPEVKFNWYVDGVEVHNAKTKPREEQYNSTYRVVSVLTVLHQDWLNGKEYKCKVSNKALGAPIEKTISKAKGQPREPQVCTLPPSRDELTKNQVSLSCAVKGFYPSDIAVEWESNGQPENNYKTTPPVLDSDGSFFLVSKLTVDKSRWQQGNVFSCSVMHEALHNHYTQKSLSLSP
# chain 2: not shown
# chain 3: EVQLLESGGGLVQPGGSLRLSCAASGFTFSTYAMNWVRQAPGKGLEWVSRIRSKYNNYATYYADSVKGRFTISRDDSKNTLYLQMNSLRAEDTAVYYCVRHGNFGNSYVSWFAYWGQGTLVTVSSASVAAPSVFIFPPSDEQLKSGTASVVCLLNNFYPREAKVQWKVDNALQSGNSQESVTEQDSKDSTYSLSSTLTLSKADYEKHKVYACEVTHQGLSSPVTKSFNRGEC
# chain 4: B1 chain 2 with E127K, E128K
# B6: Molecule A, 1+1 CrossFab-IgG (VH/VL exchange in CD3 binder, CD3 binder V9, Robo 4 binder 01F09) (bispecific antibody)
# chain 1: not shown
# chain 2: QPVLTQSPSASASLGASVKLTCTLNSQFSTYNIGWYQQHRDKPPKYVMFVKGDGGHSKADGIPDRFSGSSSGADRYLTISNIQAEDEAIYFCGADYNNAGQYGCVFGSGTHFTVLGQPKAAPSVTLFPPSSEELQANKATLVCLISDFYPGAVTVAWKADSSPVKAGVETTTPSKQSNNKYAASSYLSLTPEQWKSHRSYSCQVTHEGSTVEKTVAPTECS
# chain 3: B1 chain 3
# chain 4: B3 chain 4
# Assays:
# Assay in all cases: cell-based or functional assay
# [1] = target: T1, full-length human Robo 4 (on cells)
# [2] = target: T1, full-length human Robo 4 (on cells); remark: listed apart in the source
# [3] = target: T2, mouse Robo 4 on MS-1 mouse endothelial …
# [4] = target: T1, full-length human Robo 4 (on cells); remark: listed apart in the source
binder,measurement,setting,value
B1,"EC50 of T-cell mediated killing of HUVECs (LDH release, human PBMCs, E:T 10:1), 24 h",[1],372 pM
same,"EC50 of T-cell mediated killing of HUVECs (LDH release, human PBMCs, E:T 10:1), 48 h",[1],236 pM
B2,"EC50 of T-cell mediated killing of HUVECs (LDH release, human PBMCs, E:T 10:1), 24 h",[2],104 pM
same,"EC50 of T-cell mediated killing of HUVECs (LDH release, human PBMCs, E:T 10:1), 48 h",[2],154 pM
same,"EC50 of T-cell mediated killing of HUVECs (LDH release, human PBMCs, E:T 10:1), 24 h",[1],65 pM
same,"EC50 of T-cell mediated killing of HUVECs (LDH release, human PBMCs, E:T 10:1), 48 h",[1],322 pM
same,"EC50 of T-cell mediated killing of MS-1 cells (LDH release, human PBMCs, E:T 10:1), 24 h",[3],~164 pM
same,"EC50 of T-cell mediated killing of MS-1 cells (LDH release, human PBMCs, E:T 10:1), 48 h",[3],196 pM
B3,"EC50 of T-cell mediated killing of HUVECs (LDH release, human pan T cells, E:T 5:1, 22 h)",[4],3140 pM
B4,"EC50 of T-cell mediated killing of HUVECs (LDH release, human pan T cells, E:T 5:1, 22 h)",[4],2760 pM
B5,"EC50 of T-cell mediated killing of HUVECs (LDH release, human PBMCs, E:T 10:1), 24 h",[2],173 pM
same,"EC50 of T-cell mediated killing of HUVECs (LDH release, human PBMCs, E:T 10:1), 48 h",[2],125 pM
same,"EC50 of T-cell mediated killing of MS-1 cells (LDH release, human PBMCs, E:T 10:1), 24 h",[3],275 pM
same,"EC50 of T-cell mediated killing of MS-1 cells (LDH release, human PBMCs, E:T 10:1), 48 h",[3],119 pM
B6,"EC50 of T-cell mediated killing of HUVECs (LDH release, human pan T cells, E:T 5:1, 22 h)",[4],137 pM
